The target of assay [1] is T1, 重组人肌红蛋白 (recombinant human myoglobin, expressed in E. coli, made in-house) (human, UniProt P02144 2-154).
T1 construct: also called 人MYO; 重组人MYO
T1 sequence (looked up): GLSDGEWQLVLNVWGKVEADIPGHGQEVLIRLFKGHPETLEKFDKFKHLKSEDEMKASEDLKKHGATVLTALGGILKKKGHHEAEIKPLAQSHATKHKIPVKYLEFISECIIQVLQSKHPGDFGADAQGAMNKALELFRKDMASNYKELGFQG
The assay is described as follows: Western blot of recombinant MYO with HRP-labelled M08 (1:1000).

For assay [2], the target named is T1, 重组人肌红蛋白 (recombinant human myoglobin, …). In words: indirect ELISA, hybridoma supernatant on plates coated with recombinant human MYO at 1 μg/mL, HRP goat anti-mouse IgG.
Assay [3] shares this target. The assay is described as follows: Western blot of recombinant MYO with HRP-labelled M26 (1:1000).

B1: 单链抗体M08 (anti-human myoglobin scFv M08, His-tagged, expressed in E. coli) (scFv)
scFv: QVQLQQSGAELAKPGASVKMSCKASGYTFTSYWMHWVKQRPGQGLEWIGYIKPNTDYTEYNQKFKDKATLTADKSSSTAYMQLSSLTSEDSAVYYCTRIRGYALDYWGQGTSVTVSSGGGGSGGGGSGGGGSDIVMTQSPSSLTVTAGEKVTMICKSSQSLLNSGNQKNYLTWYQQKPGQPPKLLIYWASTRESGVPDRFTGSGSGTDFTLTISSVQAEDLAVYYCQNDYNFPLTFGAGTKLELK
notes: Purified on HisTrap HP; HRP-labelled for the Western blot; Coupled to time-resolved fluorescent microspheres in the test card; also called M08抗体; M08-scFv; not shown: histidine tag added downstream of the scFv gene
Consider B1, for which the binding result in assay [1] is recorded as “binds”.

B2: 杂交瘤细胞株M08的抗体 (mouse monoclonal antibody from hybridoma M08) (antibody, V domains shown)
VH: QVQLQQSGAELAKPGASVKMSCKASGYTFTSYWMHWVKQRPGQGLEWIGYIKPNTDYTEYNQKFKDKATLTADKSSSTAYMQLSSLTSEDSAVYYCTRIRGYALDYWGQGTSVTVSS
VL: DIVMTQSPSSLTVTAGEKVTMICKSSQSLLNSGNQKNYLTWYQQKPGQPPKLLIYWASTRESGVPDRFTGSGSGTDFTLTISSVQAEDLAVYYCQNDYNFPLTFGAGTKLELK
notes: Tested as hybridoma culture supernatant; Mouse IgG, detected with HRP goat anti-mouse IgG
For the molecule B2, the binding result in assay [2] was “binds”.

B3: 单链抗体M26 (anti-human myoglobin scFv M26, His-tagged, expressed in E. coli) (scFv)
scFv: QVQLQQSGDDLVKPGASVKLSCKASGYTFTSYWINWIKQRPGQGLEWIGRIAPEGDSTYYNEMFKGKATLTVDTSSSTAYIQLSSLSSEDSAVYFCAREVRNAMDYWGQGTSVTVSSGGGGSGGGGSGGGGSDIQMNQSPSSLSASLGDTITITCHASQNIHVWLSWYLQKPGNITKLLIYEASNLHTGVPSRFSGSGSGTGFTLTISSLQPEDIATYYCQQGQRYPLTFGGGTKLEIK
notes: Purified on HisTrap HP; HRP-labelled for the Western blot; Coated on the T line of the nitrocellulose membrane in the test card; also called M26抗体; M26-scFv; not shown: histidine tag added downstream of the scFv gene
For the molecule B3, the binding result in assay [3] is recorded as “binds”.

B4: 杂交瘤细胞株M26的抗体 (mouse monoclonal antibody from hybridoma M26) (antibody, V domains shown)
VH: QVQLQQSGDDLVKPGASVKLSCKASGYTFTSYWINWIKQRPGQGLEWIGRIAPEGDSTYYNEMFKGKATLTVDTSSSTAYIQLSSLSSEDSAVYFCAREVRNAMDYWGQGTSVTVSS
VL: DIQMNQSPSSLSASLGDTITITCHASQNIHVWLSWYLQKPGNITKLLIYEASNLHTGVPSRFSGSGSGTGFTLTISSLQPEDIATYYCQQGQRYPLTFGGGTKLEIK
notes: as for B2
For the molecule B4, in assay [2], the binding result is listed as “binds”.
